In the domain aggregation screens of Martell et al. (2025):

Assay: soluble fraction after stress (log2 fold change); higher = more stays soluble; pooled small domains, quantitative proteomics
Details: stress: pH 4
Method in brief: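 Pooled custom libraries of small protein domains were subjected to pH 4 and measured by high-throughput quantitative proteomics. The log2 fold change in soluble amount per domain is reported, higher values meaning more remained soluble. This is used as a measure of aggregation propensity.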

Row | Sequence | soluble fraction (log2)
1 | HMPTMEQTYIGRTMIAEEDMGKNSKIKVSGIYWTAYNKGRVIKKGEEYKITGIEGNKLIVSSK | 0.179
2 | HMPTNSDRLIGSDGVVSSKIDNLQGTGKVYISGLTWSARTIDGSEAEEGDIVTVEKIEGATLYVTKR | -0.293
3 | HMPTNVYSIIGKEGIVLESIDNLNSTGKVKVNGELWSAISDSNIEKGETIKVLSVNGVKLKVEKVN | -0.0569
4 | HMPTPASGSSGYINATNVNFRTGPATSYKSISKLAKNTAVTILGTSGNWYKVTVGSLGKNGYVFATYVTVS | -0.332
5 | HMPTPLTPREHEIANLIAQGLSNREIADELVISPATAARHVANILAKLGFSSRTQVASWATRHD | -0.237
6 | HMPTSLPGIDIDEKNIVSSTGALSFKKVPKKLAIIGGGYIGLEMGSVWSRLGSSVTVIEYLNFITPG | -0.172
7 | HMPTTLEGIEKYLSSGLIKGIGPHLAGKLVEAFGTRVFEVVEHQPERLRTVGGIGRTRAESITSAWRDQ | -0.141
8 | HMPTTNIRAFRLREADPESVKEALSMVMPKTSIYVDARTKSVLVVGLLDELARAAEIVALIDQP | -1.13
9 | HMPVFSAEQVAKAEADVQKVANKVQEAGADVEKLTTIHNWLLAREKYMPPDLFSTANQIIATAFQKAG | 0.279
10 | HMPVGSIGERLKALRLKAGLTQEEVGQHVHISKQTLYKYENGIVTNIPADKIELLATIYSVTPAYIMGWA | -0.118
11 | HMPVQPMDPSIEHISALTGKQFQAFPGQDHRAHMTAHLNFMSTNIVRNNPAVMGAIQKNILEHISLMAQEQ | -0.0918
12 | HMPVSLHEQIQQARIRAEQNVEGISLLLQVNPKYYEQIEAGDVIPDQDLLKRISSLFGWNYHEMLHREKSS | -0.487
13 | HMPVSTLLGDNLRRLRTAKGYTQEAVADAARISVAAYRNYETGRAIPKVNTLLAIARALGVSLNDLVTE | -0.00358
14 | HMPVTAQFDFSKVLAGRTLKDGEFSFVLKDKNGTVLQTKTNDASGKVAFDALIYKNNEVGEHKYTVEEVI | 0.294
15 | HMPVVKIPFILTEGPSSITKVIEIDADEILELKDVFQEDDKLWSINQIEMNDGRYVKHSDASLIVRASALR | -0.183
16 | HMPYHSEAWHKVMKSHWLTLSREEAYMHEGRTGASTINIVFQRELGREATQEEIESIYQEKSVLFNSYP | -1.37
17 | HMPYLVNGFILEVQSDDNNPVGTLKRRYAVAKNKQGVILLEGEKSFSSNDQILINELKFYIQSNDLKA | -1.39
18 | HMPYSKIALQISHLLKSHGVPLSNKQIYEKLINDFQLSINYSNLTNNILPRMNSDSSINVEKVTRGYWQY | 0.22
19 | HMQADKYKSYTATDFLKDKDFLRWQLFNGEEDMLFWGRVIEEYPALRSRVEEGIVLYKDNIR | -1.18
20 | HMQADTATITGNGVNMRSGPGTNYQIIDTIPKGTVAEVLSQQDGWVKIYSARISGWVSASYVEIKQT | 0.18
21 | HMQAGNAVEQYPTIGRLEEVTLGRSQPGAPIGERLSTLETVVFKRNFNDDSLFDRTERLKKTILGG | -0.0794
22 | HMQAKQVAIPDVANYSVTDAIKKLQDAGFIVSDEQREEANETVSEGKVSRTSPAAGSIRKEGTEIILYKSL | 0.279
23 | HMQALDETTVSRIRQKAAARNLLLKVLAGQLGVARPTLSNVLARREAPSAALAARIRAFLDSP | 0.159
24 | HMQALTLVGQDAKDAKAALDAVDIQPAKTETDRYIYVLTEQQAQELGRTVDALYGVEGSLTLILEV | -0.207
25 | HMQAQQYYMLLMNKATSALKIEALGANSNKAHQSFGTKTAGGSAVYWGILFNSNGKIYKIVG | -0.15
26 | HMQASIPQSQKDALAKELQALPPHGRNRVLSTFRQQFNISSEKISEFITTPEHLSFIRSKIAEVESDS | -0.529

Row | Sequence | soluble fraction (log2)
27 | HMQDENAVTYLLEIKNADANDIASVLKTLKSPDADVVVYKTLNMIIFTGQGSEINGLVKVARQLDRK | -1.3
28 | HMQDGVNLENIEQKLSTLGVGKAQYFLQNVGGNKFNAYMALNTDGVEGYQKGSDTLIEIKNVE | 0.0934
29 | HMQDKIWVVDETQLYPKLIEAMSEGKAVIHDGVAYWAEGSGKTGVIQHLPFKETTVQNVEEAIKLAQ | -0.543
30 | HMQDKLLRKKEVLEMVSITNSTMYRMIGSGQFPRPIRLDNANINSGVRWKLSEINTFIEQRF | -0.893
31 | HMQDLAKRWVEEFGDLLYKYTLPRVSDSGIAKDLVQETFLAAWRNIDNFKGEASEKNWLFTILKNKIIDH | -0.585
32 | HMQDLTAQQQAILSFLKEHPKATRKEISENIPNITEDNIRYNLSQLQELGFVKSMGDSFIRIAI | 0.216
33 | HMQDNDLKNQIENVLRTYPDNVFTVEKIADVLRSHGSAAFKLIVQELASLERDKVAVVTEDGKFQLNPD | 0.339
34 | HMQDPTAVISRVLEERKHQPGALLPILHGIQDALGYVPREAVAQIAQALNLSRAEIHGVVSFYHHFR | -0.311
35 | HMQDPVWVDWLGENDWFQKDPKRRGLANGYSEILRAEQPELVGRPFLDEVTRRVQADFPELFG | -1.33
36 | HMQDTRSHARKMLAAIEALLEGRSGSDIQAYTIHNRSITKMTVPELVKWRSYYQQQVRSEDAAASLA | 0.206
37 | HMQDTYLYPVQHNGKVRLQVELPAKGLPEDLVRLALAHPKVVEWLNGRIPTKTIAVPGRIINMVLPNQ | 0.18
38 | HMQDVWEPFLAKGYVFADGMLTKLIHKRGDVYKTQEIGSDKIIYVIKDGDTFAHGKTVKAAMLDLAFKKS | -0.392
39 | HMQDYISAEEAKSAALSASQVDSAGAAFSAAELGEKNGIPYYEVAFTADGLEYRYAIDAQTGTVIESSSSG | -0.164
40 | HMQEDKVRKLTEMGFAEDQAREALRKHDWDETMALNSL | -0.244
41 | HMQEDSNISFVKIHVDADSGMAHKKLSKLSLPTGFLIVVIIRGEENIIPNGETEVLPGDLLVAAAREFEN | -0.811
42 | HMQEEELYPRLEEVINQHRGKGEDLIMVLHKAQNLFGYLPRRAQEMVAEGLNVSLNEVYGVITFYNFFST | -0.342
43 | HMQEERDISFIKIHLEPGHPWRGRALRELMPLKDLLIVMVVRGEDTIVPNGDTRLEEGDLLVLAAYPFEE | -2.57
44 | HMQEHAHLWRLMEDNRSFKADYIAFENGIVLLQNLSSGKISQYPITDFSIEDQLLILKRHELTAHINAN | -0.0419
45 | HMQEIKPEPISDGRVWKEGMWATTPLGIEGQLLSDPDEKGMVQLGYGNMRININIQDLDPSR | -0.207
46 | HMQEISQEEALATVLKDLSLTEADLKDLQITREEDKYKILFSKGQTAYDVLVSAKDGQLLQSKQETI | -0.359
47 | HMQEKQIIDGREFYIHQVERGITLYSIAKQYNVKVADIQAENPFLEAGLQPGQTLKIPLDKVETVQEIK | -0.17
48 | HMQEPIAVPDFINKSAVDVLVNPVFTQNFKLVSEDVYDDKVPEGYIVGQSVKSDTLVQPGTEIVIYV | 0.0962
49 | HMQEPNYQPLMQNIKSQDLEEVTRLLSLNDVKFKIDHRTGLLLVESSRVYEAKMKLAATGITD | -1.15
50 | HMQEPVHFTRRERQVLSLILSGQATAEIAKTLGIANATVTTYKKSLYSKSGTNSLSRLLIWAMVRR | -0.332
51 | HMQEPVYRPVFPGMTDADRQSAMEALKEGGFSPRLNRQTGQLEVDASGYHEAKIYLASQGIPAE | 0.22
52 | HMQERNYIVRRGDTLWDLAKTYYGSGTKYTVIYDANRDNIEAEAKRRGKQSSNGGYWIYPGTELTI | -0.0819

Row | Sequence | soluble fraction (log2)
53 | HMQERTVVKGVVVQVSRDEAYVDIGYKQEIPVSKRDLAVPAPDDARDVVKVGDEIDVYIKSLGGDNGG | -0.0346
54 | HMQESTPGEGYKWREDVLLRVMSQNGIDESLRDEFVRHAVNYDIDDNMYLKKAEIESAAEAWVLENS | -1.92
55 | HMQESVTVSAQALRRLLEKGDGDAALLYLALLRHHGTIQPRALAGELRWERPRIEAAEEALRQMGLIA | 0.121
56 | HMQETMTNDEVISLTKAGLSSSIIIGKIRSSATNFDLSTDSLIKLKQAGVSDETVAAMLEAKS | 0.181
57 | HMQGAARGMLFAQAQRWMTKFRIDPQQADRITQAALDPAQTDAILREVRRGYGPSAERALRGIIRRARRA | 0.259
58 | HMQGEAMQETVKKLDAFLQDNSVSMSALARALGVSPSLISQFRSGSYKGDSQAIAAKINSYIDNHNKKSK | 0.0656
59 | HMQGEKDDLWREVLDNPDAWWDNRERKNAPGGNPRYPDFKHKDSQTPLWIESRDTPQWAIDALL | -0.406
60 | HMQGNGKVATELLKDIIASDNLYINAMRMLVMHYNSKGTNQVEMVKLLHNILDLVPDDEYANEILKSAKKA | -0.637
61 | HMQGPDPYAVLGIDRHADERAIKRAYRKLISEHHPDRLGDLPEDMRKRAESRASEINAAYDRIKEARGF | 0.13
62 | HMQGQVLQETARKARSQLDSEIPGFNDALYQNLIKSSENYGYKAEEVAQWVDPRAIKVLNDAYQFQQLKAG | -0.25
63 | HMQGTTTELLIQKSALYEELNDPEKALNAMFDAFEMDSLNVNVLHRIVSLLLDKEENEKAILYNQLIIDH | -0.507
64 | HMQHQSGLKSGEFEAISQQLQALLKENPLSLQEIKDKMQVTENHLIKVVSYLVSEEIIRQENGYLK | -1.67
65 | HMQIAGLDDIDNRIIDLLLKNGRASYSEIGAAVGLSRTAAKNRIRALEASGIIRGYQAILDPQA | 0.0596
66 | HMQIDDSVELSAIVEKLLAANPEQVEQLKNGKTKVLGYFVGLAMKETQGRANPQKVNELIQTHL | -0.308
67 | HMQIDRLFDIVYTLLRKKSATAAELAERFGVSKRTILRDIETLSVAGIPILTSPGKGGGVSISSSF | -0.423
68 | HMQIIETTVGRVLFNEKVPEAAGYINEVLTKKSLRDIIHGILKKTSVPETAAFLDEIKSLGYNFAF | -0.264
69 | HMQIIEVPYSEFLKKLESGQISEVSRDSYQIVFTDRSQPPIIYKTGLMEDPGLVDKMQEAGVTFTSP | -0.228
70 | HMQIKNVDYGTFLDMLDEKNVKEVEIEDEQIVFTDNADPTGYYTTGRMEDPDLVDRLHNSGATFSAI | -0.841
71 | HMQILLASHAELAKGILSAVELIAGTQQNLKAYSAYTEAVDVHFKDQMLQDLNKMDPEDEVIL | 0.0244
72 | HMQINLSEWVLAAREYAGPEMTQEKLAEHLGRTKANVSAMENGRSKPSFEQMMEIHRVTGYPLPYQ | -0.0156
73 | HMQISDAGALLDAVRRVLAENPAQVEQFRAGKEKVMGFLVGQVMRATGGKANPQMLNDVLREELS | 0.198
74 | HMQISDEGELSGIVRKIIDANPQSVADYKAGKKKAIGFLVGQIMIETKGRANPASVNELLIKKLE | 0.105
75 | HMQISDNTILEDAVSRIIDENPKSVSDYFQGKEAVVGFFIGQIMRETKGTANPKIAREIVISHLEAI | -0.819
76 | HMQISGIHLYERRITKDDEWAERKLSEISLAGSLVILILRNEHVVIPNGETVLKENDLLYISD | -1.38
